From patent US7341992B2, “Lectin-like domain of thrombomodulin and its therapeutic use” (Vlaams Interuniversitair Instituut Voor Biotechnologie VZW, priority 2001, dated 2008)

Tested on: fEND.5 cells
Assay: Static adhesion assay: human neutrophils on activated fEND.5 cells
Format: cell-based, murine endothelial cell line
Conditions: for LPS-induced adhesion of human neutrophils to fEND.5 cells (effect in words) / PMN Adhesion to LPS-stimulated fEND.5 Cells, Mean: LPS 20 μg/ml 3 hrs; for PMN Adhesion to LPS-stimulated fEND.5 Cells, Mean / PMN Adhesion to TNF-stimulated fEND.5 Cells, Mean: human neutrophils 50,000 per well; for TNF-induced adhesion of human neutrophils to fEND.5 cells (effect in words) / PMN Adhesion to TNF-stimulated fEND.5 Cells, Mean: TNFα 200 U/ml 3 hrs
Description: Static adhesion assays using human neutrophils (50,000 per well) and confluent fEND.5 cells in 24-well plates were performed exactly as described (see below—Methods section 11). Where noted, TNFα (200 U/ml) or LPS 20 μg/ml, were used to activate the fEND.5 cells for 3 hrs. PMNs were co-incubated with one of the recombinant human TM fragments 1, 2 or 4, (SEQ ID NO 1, 2, 4) or with HPLC-purified peptides representing human TM fragments 3,6 or 7 (SEQ ID NO 3, 6, 7). Tables 11-17 show results, where the amount of recombinant fragment in μg is shown on the bar graphs, and * indicates p<0.05 as compared with buffer control (i.e. without recombinant protein) under the same conditions. In all cases, appropriate controls were used for comparisons.
Endothelial cells were plated in 24-well dishes and grown to confluence. Following 2 washes of the cell monolayers with HBSS, freshly prepared BCECF-AM-labeled, neutrophils derived from human peripheral blood, or murine bone marrow-derived PMNs or lymphocytes 50,000 per well, were added in a final volume of 1 ml for 30 minutes at room temperature. The media was decanted and the cell monolayers were gently washed three times with HBSS after which the adherent fluorescently labeled leukocytes were counted with an inverted epiflourescence microscope as described above.

Molecule	LPS-induced adhesion of human neutrophils to fEND.5 cells (effect in words)	PMN Adhesion to LPS-stimulated fEND.5 Cells, Mean (1 μg of fragment)	PMN Adhesion to LPS-stimulated fEND.5 Cells, Mean (5 μg of fragment)	PMN Adhesion to LPS-stimulated fEND.5 Cells, Mean (8 μg of fragment)	PMN Adhesion to LPS-stimulated fEND.5 Cells, Mean (15 μg of fragment)	TNF-induced adhesion of human neutrophils to fEND.5 cells (effect in words)	PMN Adhesion to TNF-stimulated fEND.5 Cells, Mean (8 μg of fragment)	PMN Adhesion to TNF-stimulated fEND.5 Cells, Mean (20 μg of fragment)	PMN Adhesion to TNF-stimulated fEND.5 Cells, Mean (5 μg of fragment)	PMN Adhesion to TNF-stimulated fEND.5 Cells, Mean (10 μg of fragment)
pept n^o 23: HPLC-purified peptide, amino acids 84-97 of SEQ ID NO: 1 (human TM)	significantly suppressed	31.015	21.535	–	–	–	–	–	–	–
pept. N^o 24: HPLC-purified peptide, amino acids 3-33 of SEQ ID NO: 1 (human TM) (PQPGGSQCVEHDCFALYPGPATFLNASQICD; PEPTIDE (1)...(31) Human thrombomodulin fragment 3; listed as Homo sapiens)	significantly suppressed	38.830	44.019	22.000	–	–	–	–	–	–
pr. 480 bp: Recombinant human TM fragment, amino acids 1 to 157 of the mature protein, expressed in Pichia pastoris (protein, listed as Homo sapiens, PEPTIDE (1)...(157) Human thrombomodulin fragment 2, Recombinant human TM fragment, amino acids 1 to 157 of the mature protein, expressed in Pichia pastoris) AEPQPGGSQCVEHDCFALYPGPATFLNASQICDGLRGHLMTVRSSVAADVISLLLNGDGGVGRRRLWIGLQLPPGCGDPKRLGPLRGFQWVTGDNNTSYSRWARLDLNGAPLCGPLCVAVSAAEATVPSEPIWEEQQCEVKADGFLCEFHFPATCRP	significantly suppressed	–	27.68	25.50	19.01	–	–	–	–	–
pr. 400 bp: Recombinant human TM fragment, amino acids 33 to 159 of the mature protein, expressed in Pichia pastoris (protein, listed as Homo sapiens, PEPTIDE (1)...(127) Human thrombomodulin fragment 4, Recombinant human TM fragment, amino acids 33 to 159 of the mature protein, expressed in Pichia pastoris) DGLRGHLMTVRSSVAADVISLLLNGDGGVGRRRLWIGLQLPPGCGDPKRLGPLRGFQWVTGDNNTSYSRWARLDLNGAPLCGPLCVAVSAAEATVPSEPIWEEQQCEVKADGFLCEFHFPATCRPLA	suppressed	–	33.642	29.725	–	suppressed	53.417	63.500	–	–
pr. 680 bp: Recombinant human TM fragment, amino acids 1 to 224 of the mature protein, entire N-terminal domain, expressed in Pichia pastoris (protein, listed as Homo sapiens, PEPTIDE (1)...(224) Human thrombomodulin fragment 1, Recombinant human TM fragment, amino acids 1 to 224 of the mature protein, entire N-terminal domain, expressed in Pichia pastoris) AEPQPGGSQCVEHDCFALYPGPATFLNASQICDGLRGHLMTVRSSVAADVISLLLNGDGGVGRRRLWIGLQLPPGCGDPKRLGPLRGFQWVTGDNNTSYSRWARLDLNGAPLCGPLCVAVSAAEATVPSEPIWEEQQCEVKADGFLCEFHFPATCRPLAVEPGAAAAAVSITYGTPFAARGADFQALPVGSSAAVAPLGLQLMCTAPPGAVQGHWAREAPGAWD	significantly suppressed	–	29.403	24.292	18.333	significantly suppressed	–	–	85.656	24.303
